# Experiments:
# [1] = target: human Tau(pS422) fragment (residues 416 to 430 with phosphorylated serine 422) (human); experiment: ELISA, coated antigen
# [2] = target: human Tau(pS422) fragment (residues 416 to 430 with phosphorylated serine 422) (human); experiment: ELISA, biotinylated peptide on streptavidin plate
# [3] = target: human Tau(pS422) fragment (residues 416 to 430 with phosphorylated serine 422) (human); experiment: ELISA, ratio of EC50 values
Binder,EC50 [1] [ng/mL],EC50 [2] [ng/mL],selectivity over non-phosphorylated Tau peptide [3] [fold]
"rabbit antibody Mab 086 (VH00/VL00) (antibody, V domains shown) VH: QSVEESGGRLVTPGTPLTLTCTVSGFSLSSNAINWVRQAPGKGLEWIGYIAVSGNTYYASWAKGRFTISKASTTVDLKMTSPTAEDTGTYFCGKSNIWGPGTLVTVSL VL: AQVLTQTTSPVSAAVGSTVTISCQSSQSVRTNKLAWFQQKPGQPPKRLIYSASTLDFGVPSRFSASGSGTQFTLTISDVQCDDAATYYCLGYFDCSIADCVAFGGGTEVVVK",6.3,1.1,> 100
"VH32/VL21 (antibody, V domains shown) VH: EVQVLESGGGLVQPGGSLRLSCAVSGFSLSSNAINWVRQAPGKGLEWVGYIAVSGNTYYASWAKGRFTISRDNSKNTVYLQMNSLRAEDTAVYYCGKSNIWGQGTLVTVSS VL: AQVMTQSPSSLSASVGDRVTITCRSSQSVRTNKLAWFQQKPGQPPKRLIYSASTLDFGVPSRFSGSGSGTEFTLTISSLQPEDFATYYCLGYFDSSADIVAFGGGTKVEIK",4.4,,

# — US20200223912A1
